This note sets out measurements from US20210163584A1 (Sanofi, published 2021).

Test [1] addresses T1, TGF-β1 (UniProt P01137 279-390). Put plainly: cell-based or functional assay.
Test [2] has as its target T1, TGF-β1. The test is described as follows: SPR (Biacore); amine-coupled TGF-β1 on chip, antibody as analyte, kinetic fit. The source says: Recombinant mAb1-D10 fusion variants of Example 7 were also quantitatively assessed for TGF-β1 binding using surface plasmon resonance (SPR) as detected by Biacore. Samples containing purified variants were passed over a sensor chip with amine-coupled TGF-β1 to determine the equilibrium constant, KD. A target immobilization level of less than 100 response units (RU) of TGF-β1 was chosen to minimize the potential for avidity effects arising from binding adjacent TGF-β1 molecules on the chip. The level of immobilization was determined by the change in response units after NHS/EDC activation of the chip surface, but before quenching with ethanolamine. The fusion variants, WT fusion variant F1, and mAb1 control were diluted to 30, 10, 3, 1 and 0.37 nM in HBS-EP buffer and passed over the TGF-β1 chip at 30 μL/min for 3 min, followed by 5 min dissociation in the same buffer. Between runs, the chip surface was regenerated to remove any bound antibody by passing two 30 sec injections of 40 mM HCl over the chip at a flow rate of 75 μL/min. […] Unexpectedly, the maximum signal (RU) elicited by the fusion variants decreased with increasing number of peptides, with variant F17 (D10-HC-D10/D10-LC, PAR=6) showing the lowest signal. […] A possible explanation of this decline may reflect electrostatic repulsion between the chip matrix (carboxymethyl dextran) and the negatively charged D10 peptides.

Test [3] deals with T1, TGF-β1. Put plainly: cell-based or functional assay. The source holds these as a separate data set.

Read-outs that look alike come from different tables or passages of the source.

T1 sequence (P01137 279-390 limits assumed): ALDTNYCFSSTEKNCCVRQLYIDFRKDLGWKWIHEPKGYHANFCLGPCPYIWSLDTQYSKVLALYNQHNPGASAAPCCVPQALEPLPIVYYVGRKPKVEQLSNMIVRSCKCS

B1: mAb1 F7 (antibody, mouse IgG1, kappa)
heavy: HVQLQQSGPELVRPGASVKLSCKASGYIFITYWMNWVKQRPGQGLEWIGQIFPASGSTNYNEMFEGKATLTVDTSSSTAYMQLSSLTSEDSAVYYCARGDGNYALDAMDYWGQGTSVTVSSAKTTPPSVYPLAPGSAAQTNSMVTLGCLVKGYFPEPVTVTWNSGSLSSGVHTFPAVLQSDLYTLSSSVTVPSSTWPSQTVTCNVAHPASSTKVDKKIVPRDCGCKPCICTVPEVSSVFIFPPKPKDVLTITLTPKVTCVVVDISKDDPEVQFSWFVDDVEVHTAQTKPREEQFNSTFRSVSELPIMHQDWLNGKEFKCRVNSAAFPAPIEKTISKTKGRPKAPQVYTIPPPKEQMAKDKVSLTCMITDFFPEDITVEWQWNGQPAENYKNTQPIMDTDGSYFVYSKLNVQKSNWEAGNTFTCSVLHEGLHNHHTEKSLSHSPGKDDDDDDDDDD
light: DDDDDDDDDDNIVLTQSPASLAVSLGQRATISCRASESVDSYGNSFMHWYQQKSGQPPKLLIYLASNLESGVPARFSGSGSRTDFTLTIDPVEADDAATYYCQQNNEDPLTFGAGTKLELKRADAAPTVSIFPPSSEQLTSGGASVVCFLNNFYPKDINVKWKIDGSERQNGVLNSWTDQDSKDSTYSMSSTLTLTKDEYERHNSYTCEATHKTSTSPIVKSFNRNEC
notes: Mouse IgG1 fusion variant, PAR 4; also called HC-D10: D10-LC
For B1, in the test with TGF-β1 [1], the “IC50 (read off the curve); IL-11 release by A549 cells in response to TGF-β1” value (“IC50 (read off the curve); IL-11 release” below) is roughly 0.08 nM. In the test with TGF-β1 [2], this molecule yielded a Kd of 5.43 nM, a koff of 0.00094 s⁻¹ and a kon of 172000 M⁻¹ s⁻¹.

B2: mAb1 F12 (antibody, mouse IgG1, kappa)
heavy: DDDDDDDDDDHVQLQQSGPELVRPGASVKLSCKASGYIFITYWMNWVKQRPGQGLEWIGQIFPASGSTNYNEMFEGKATLTVDTSSSTAYMQLSSLTSEDSAVYYCARGDGNYALDAMDYWGQGTSVTVSSAKTTPPSVYPLAPGSAAQTNSMVTLGCLVKGYFPEPVTVTWNSGSLSSGVHTFPAVLQSDLYTLSSSVTVPSSTWPSQTVTCNVAHPASSTKVDKKIVPRDCGCKPCICTVPEVSSVFIFPPKPKDVLTITLTPKVTCVVVDISKDDPEVQFSWFVDDVEVHTAQTKPREEQFNSTFRSVSELPIMHQDWLNGKEFKCRVNSAAFPAPIEKTISKTKGRPKAPQVYTIPPPKEQMAKDKVSLTCMITDFFPEDITVEWQWNGQPAENYKNTQPIMDTDGSYFVYSKLNVQKSNWEAGNTFTCSVLHEGLHNHHTEKSLSHSPGK
light: DDDDDDDDDDNIVLTQSPASLAVSLGQRATISCRASESVDSYGNSFMHWYQQKSGQPPKLLIYLASNLESGVPARFSGSGSRTDFTLTIDPVEADDAATYYCQQNNEDPLTFGAGTKLELKRADAAPTVSIFPPSSEQLTSGGASVVCFLNNFYPKDINVKWKIDGSERQNGVLNSWTDQDSKDSTYSMSSTLTLTKDEYERHNSYTCEATHKTSTSPIVKSFNRNEC
notes: Mouse IgG1 fusion variant, PAR 4; also called D10-HC: D10-LC
In the test with TGF-β1 [2], B2 returned a Kd of 5.41 nM, a koff of 0.00093 s⁻¹ and a kon of 171000 M⁻¹ s⁻¹. Moreover, the “IC50 (read off the curve); IL-11 release” value with TGF-β1 [3] was roughly 0.03 nM.

B3: mAb1 F1 (antibody, mouse IgG1, kappa)
heavy: HVQLQQSGPELVRPGASVKLSCKASGYIFITYWMNWVKQRPGQGLEWIGQIFPASGSTNYNEMFEGKATLTVDTSSSTAYMQLSSLTSEDSAVYYCARGDGNYALDAMDYWGQGTSVTVSSAKTTPPSVYPLAPGSAAQTNSMVTLGCLVKGYFPEPVTVTWNSGSLSSGVHTFPAVLQSDLYTLSSSVTVPSSTWPSQTVTCNVAHPASSTKVDKKIVPRDCGCKPCICTVPEVSSVFIFPPKPKDVLTITLTPKVTCVVVDISKDDPEVQFSWFVDDVEVHTAQTKPREEQFNSTFRSVSELPIMHQDWLNGKEFKCRVNSAAFPAPIEKTISKTKGRPKAPQVYTIPPPKEQMAKDKVSLTCMITDFFPEDITVEWQWNGQPAENYKNTQPIMDTDGSYFVYSKLNVQKSNWEAGNTFTCSVLHEGLHNHHTEKSLSHSPGK
light: NIVLTQSPASLAVSLGQRATISCRASESVDSYGNSFMHWYQQKSGQPPKLLIYLASNLESGVPARFSGSGSRTDFTLTIDPVEADDAATYYCQQNNEDPLTFGAGTKLELKRADAAPTVSIFPPSSEQLTSGGASVVCFLNNFYPKDINVKWKIDGSERQNGVLNSWTDQDSKDSTYSMSSTLTLTKDEYERHNSYTCEATHKTSTSPIVKSFNRNEC
notes: Recombinant version of mAb1 without D10 peptide, mouse IgG1, PAR 0; also called Fusion 1; WT
On to B3, for which, in the test with TGF-β1 [1], the “IC50 (read off the curve); IL-11 release” value was roughly 0.2 nM. In the test with TGF-β1 [2], this molecule gave a Kd of 2.51 nM, a dissociation rate constant (koff) of 0.00085 s⁻¹ and a kon of 338000 M⁻¹ s⁻¹.

B4: mAb1 F16 (antibody, mouse IgG1, kappa)
heavy: DDDDDDDDDDHVQLQQSGPELVRPGASVKLSCKASGYIFITYWMNWVKQRPGQGLEWIGQIFPASGSTNYNEMFEGKATLTVDTSSSTAYMQLSSLTSEDSAVYYCARGDGNYALDAMDYWGQGTSVTVSSAKTTPPSVYPLAPGSAAQTNSMVTLGCLVKGYFPEPVTVTWNSGSLSSGVHTFPAVLQSDLYTLSSSVTVPSSTWPSQTVTCNVAHPASSTKVDKKIVPRDCGCKPCICTVPEVSSVFIFPPKPKDVLTITLTPKVTCVVVDISKDDPEVQFSWFVDDVEVHTAQTKPREEQFNSTFRSVSELPIMHQDWLNGKEFKCRVNSAAFPAPIEKTISKTKGRPKAPQVYTIPPPKEQMAKDKVSLTCMITDFFPEDITVEWQWNGQPAENYKNTQPIMDTDGSYFVYSKLNVQKSNWEAGNTFTCSVLHEGLHNHHTEKSLSHSPGKDDDDDDDDDD
light: NIVLTQSPASLAVSLGQRATISCRASESVDSYGNSFMHWYQQKSGQPPKLLIYLASNLESGVPARFSGSGSRTDFTLTIDPVEADDAATYYCQQNNEDPLTFGAGTKLELKRADAAPTVSIFPPSSEQLTSGGASVVCFLNNFYPKDINVKWKIDGSERQNGVLNSWTDQDSKDSTYSMSSTLTLTKDEYERHNSYTCEATHKTSTSPIVKSFNRNEC
notes: Mouse IgG1 fusion variant, PAR 4; also called D10-HC-D10: WT-LC
In the test with TGF-β1 [2], B4 had a Kd of 6.88 nM, a koff of 0.0011 s⁻¹ and a kon of 159000 M⁻¹ s⁻¹. Also, in the test with TGF-β1 [3], the “IC50 (read off the curve); IL-11 release” value is roughly 0.02 nM.

B5: mAb1 F11 (antibody, mouse IgG1, kappa)
heavy: DDDDDDDDDDHVQLQQSGPELVRPGASVKLSCKASGYIFITYWMNWVKQRPGQGLEWIGQIFPASGSTNYNEMFEGKATLTVDTSSSTAYMQLSSLTSEDSAVYYCARGDGNYALDAMDYWGQGTSVTVSSAKTTPPSVYPLAPGSAAQTNSMVTLGCLVKGYFPEPVTVTWNSGSLSSGVHTFPAVLQSDLYTLSSSVTVPSSTWPSQTVTCNVAHPASSTKVDKKIVPRDCGCKPCICTVPEVSSVFIFPPKPKDVLTITLTPKVTCVVVDISKDDPEVQFSWFVDDVEVHTAQTKPREEQFNSTFRSVSELPIMHQDWLNGKEFKCRVNSAAFPAPIEKTISKTKGRPKAPQVYTIPPPKEQMAKDKVSLTCMITDFFPEDITVEWQWNGQPAENYKNTQPIMDTDGSYFVYSKLNVQKSNWEAGNTFTCSVLHEGLHNHHTEKSLSHSPGK
light: NIVLTQSPASLAVSLGQRATISCRASESVDSYGNSFMHWYQQKSGQPPKLLIYLASNLESGVPARFSGSGSRTDFTLTIDPVEADDAATYYCQQNNEDPLTFGAGTKLELKRADAAPTVSIFPPSSEQLTSGGASVVCFLNNFYPKDINVKWKIDGSERQNGVLNSWTDQDSKDSTYSMSSTLTLTKDEYERHNSYTCEATHKTSTSPIVKSFNRNEC
notes: Mouse IgG1 fusion variant, PAR 2; also called D10-HC: WT-LC
In the test with TGF-β1 [2], B5 came in with a Kd of 5.62 nM, a koff of 0.00092 s⁻¹ and a kon of 164000 M⁻¹ s⁻¹. For the same molecule, the “IC50 (read off the curve); IL-11 release” value with TGF-β1 [3] was roughly 0.07 nM.

B6: mAb1 F2 (antibody, mouse IgG1, kappa)
heavy: HVQLQQSGPELVRPGASVKLSCKASGYIFITYWMNWVKQRPGQGLEWIGQIFPASGSTNYNEMFEGKATLTVDTSSSTAYMQLSSLTSEDSAVYYCARGDGNYALDAMDYWGQGTSVTVSSAKTTPPSVYPLAPGSAAQTNSMVTLGCLVKGYFPEPVTVTWNSGSLSSGVHTFPAVLQSDLYTLSSSVTVPSSTWPSQTVTCNVAHPASSTKVDKKIVPRDCGCKPCICTVPEVSSVFIFPPKPKDVLTITLTPKVTCVVVDISKDDPEVQFSWFVDDVEVHTAQTKPREEQFNSTFRSVSELPIMHQDWLNGKEFKCRVNSAAFPAPIEKTISKTKGRPKAPQVYTIPPPKEQMAKDKVSLTCMITDFFPEDITVEWQWNGQPAENYKNTQPIMDTDGSYFVYSKLNVQKSNWEAGNTFTCSVLHEGLHNHHTEKSLSHSPGK
light: DDDDDDDDDDNIVLTQSPASLAVSLGQRATISCRASESVDSYGNSFMHWYQQKSGQPPKLLIYLASNLESGVPARFSGSGSRTDFTLTIDPVEADDAATYYCQQNNEDPLTFGAGTKLELKRADAAPTVSIFPPSSEQLTSGGASVVCFLNNFYPKDINVKWKIDGSERQNGVLNSWTDQDSKDSTYSMSSTLTLTKDEYERHNSYTCEATHKTSTSPIVKSFNRNEC
notes: Mouse IgG1 fusion variant, PAR 2; also called WT-HC: D10-LC
B6: the “IC50 (read off the curve); IL-11 release” value in the test with TGF-β1 [1] was roughly 0.2 nM. In the test with TGF-β1 [2], this molecule yielded a Kd of 6.01 nM, a koff of 0.001 s⁻¹ and a kon of 166000 M⁻¹ s⁻¹.

B7: mAb1 F6 (antibody, mouse IgG1, kappa)
heavy: HVQLQQSGPELVRPGASVKLSCKASGYIFITYWMNWVKQRPGQGLEWIGQIFPASGSTNYNEMFEGKATLTVDTSSSTAYMQLSSLTSEDSAVYYCARGDGNYALDAMDYWGQGTSVTVSSAKTTPPSVYPLAPGSAAQTNSMVTLGCLVKGYFPEPVTVTWNSGSLSSGVHTFPAVLQSDLYTLSSSVTVPSSTWPSQTVTCNVAHPASSTKVDKKIVPRDCGCKPCICTVPEVSSVFIFPPKPKDVLTITLTPKVTCVVVDISKDDPEVQFSWFVDDVEVHTAQTKPREEQFNSTFRSVSELPIMHQDWLNGKEFKCRVNSAAFPAPIEKTISKTKGRPKAPQVYTIPPPKEQMAKDKVSLTCMITDFFPEDITVEWQWNGQPAENYKNTQPIMDTDGSYFVYSKLNVQKSNWEAGNTFTCSVLHEGLHNHHTEKSLSHSPGKDDDDDDDDDD
light: NIVLTQSPASLAVSLGQRATISCRASESVDSYGNSFMHWYQQKSGQPPKLLIYLASNLESGVPARFSGSGSRTDFTLTIDPVEADDAATYYCQQNNEDPLTFGAGTKLELKRADAAPTVSIFPPSSEQLTSGGASVVCFLNNFYPKDINVKWKIDGSERQNGVLNSWTDQDSKDSTYSMSSTLTLTKDEYERHNSYTCEATHKTSTSPIVKSFNRNEC
notes: Mouse IgG1 fusion variant, PAR 2; also called HC-D10: WT-LC; mAb1-D10
B7: the “IC50 (read off the curve); IL-11 release” value with TGF-β1 [1] is roughly 0.2 nM. In the test with TGF-β1 [2], this molecule yielded a Kd of 4.58 nM, a koff of 0.00084 s⁻¹ and a kon of 182000 M⁻¹ s⁻¹.

The Kd is the equilibrium constant for the complex coming apart. Broadly, the koff is a measure of how fast the partners let go of each other. A high value points to a short-lived complex. As a reminder, the kon is the rate constant with which the complex forms. Read a high kon as fast association.
